Like-named read-outs stand apart in the source and are kept apart here.
T1: CDH6 on the cell surface of OVCAR-3 cells (human ovarian cancer cells) (human, UniProt P55285 54-790)
T1 construct: whole, on cells; also called CDH6-positive human ovarian cancer cell line OVCAR-3
T1 sequence (looked up): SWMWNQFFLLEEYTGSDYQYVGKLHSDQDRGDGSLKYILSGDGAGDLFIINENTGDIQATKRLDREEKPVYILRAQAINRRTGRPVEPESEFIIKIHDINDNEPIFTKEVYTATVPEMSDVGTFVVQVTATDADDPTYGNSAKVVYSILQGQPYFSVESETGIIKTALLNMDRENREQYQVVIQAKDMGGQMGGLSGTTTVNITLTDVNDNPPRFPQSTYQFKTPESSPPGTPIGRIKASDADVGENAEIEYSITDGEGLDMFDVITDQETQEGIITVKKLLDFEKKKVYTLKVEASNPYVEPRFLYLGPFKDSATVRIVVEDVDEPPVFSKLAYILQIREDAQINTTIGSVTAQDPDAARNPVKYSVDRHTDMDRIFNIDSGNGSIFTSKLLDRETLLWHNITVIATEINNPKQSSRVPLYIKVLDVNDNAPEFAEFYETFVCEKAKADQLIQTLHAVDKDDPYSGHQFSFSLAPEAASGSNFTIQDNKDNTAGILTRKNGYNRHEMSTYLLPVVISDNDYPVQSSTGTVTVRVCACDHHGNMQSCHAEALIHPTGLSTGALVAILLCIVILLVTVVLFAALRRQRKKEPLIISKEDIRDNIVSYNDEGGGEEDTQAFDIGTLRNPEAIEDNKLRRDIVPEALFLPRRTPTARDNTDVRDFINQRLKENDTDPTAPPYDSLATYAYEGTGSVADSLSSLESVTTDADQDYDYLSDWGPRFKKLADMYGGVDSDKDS

T2: recombinant protein CDH6 (UniProt P55285 54-615)
T2 construct: also called CDH6 recombinant protein; CDH6 antigen
T2 sequence (looked up): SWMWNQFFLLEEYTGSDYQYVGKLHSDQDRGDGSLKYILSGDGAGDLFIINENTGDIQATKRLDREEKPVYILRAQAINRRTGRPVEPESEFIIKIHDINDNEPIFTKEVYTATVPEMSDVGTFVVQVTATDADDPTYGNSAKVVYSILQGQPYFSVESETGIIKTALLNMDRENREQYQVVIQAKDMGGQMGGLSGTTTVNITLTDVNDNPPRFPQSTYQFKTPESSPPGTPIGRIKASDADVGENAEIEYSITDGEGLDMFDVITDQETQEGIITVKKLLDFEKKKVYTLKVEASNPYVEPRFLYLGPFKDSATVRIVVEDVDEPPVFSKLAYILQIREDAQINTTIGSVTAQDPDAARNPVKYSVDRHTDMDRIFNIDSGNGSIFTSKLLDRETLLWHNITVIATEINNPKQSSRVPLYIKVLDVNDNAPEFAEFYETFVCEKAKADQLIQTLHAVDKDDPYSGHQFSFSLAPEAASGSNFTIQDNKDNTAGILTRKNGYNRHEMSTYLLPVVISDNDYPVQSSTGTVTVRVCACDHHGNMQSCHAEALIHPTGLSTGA


What was measured:
[1] = target: T1, CDH6 on the cell surface of OVCAR-3 …; test: flow cytometry (FACS) on OVCAR-3 cells, antibody titration, labelled secondary antibody, MFI
Description: The binding EC50 of the humanized antibodies on tumor cell were tested as follow. Human ovarian cancer cell line OVCAR-3(purchased from National Collection of Authenticated Cell Cultures) cell culture was maintained in vitro as independent monolayer cultures at 37° C. in an atmosphere of 5% CO₂. The cells were harvested using trypsin-EDTA partial digestion followed by centrifugation at 1000 rpm for 5 minutes. The cell was resuspended in cold PBS and serial dilution of Ch069707 and CL069707-H1L1, CL069707-H1L2, CL069707-H2L1 and CL069707-H2L2 antibodies were added. Ch069707 antibody was a chimeric antibody. The variable regions were the same as those of CL069707, and the constant region was the same as human IgG1 constant regions (SEQ ID NO: 70 and SEQ ID NO: 71). The cell solutions were mixed, incubated at 4° C. and washed with cold PBS prior to addition of secondary antibody conjugates (for detection purposes). After incubation at 4° C., the cells were washed with PBS, and then subjected to flow cytometry (FACS) analysis.

recombinant protein CDH6 [2] = target: T2, recombinant protein CDH6; test: ELISA, CDH6 coated at 1 ug/mL
Description: (§1) The recombinant protein CDH6 was coated on ELISA plates at 1 μg/mL overnight at 4° C.; after being washed with PBST, the plate was added with 10% fetal bovine serum, and the mixture was blocked at 37° C. for 1 h; the plate was added with 13 monoclonal antibodies of CDH6 with different dilutions (0.1 ng/mL to 100 ng/mL), and the mixture was reacted at 37° C. for 1 h; after being washed with PBST, the plate was added with horseradish peroxidase-labeled goat anti-human IgG secondary antibody (Goat anti Mouse (HRP), Thermo Fisher Scientific), and the mixture was reacted at 37° C. for 30 min; after the plate was repeatedly washed with PBST 5 times, the remaining droplets on the absorbent paper were patted as much as possible; each well of the plate was added with 100 μL of TMB (eBioscience) and placed in the dark at room temperature (20±5° C.) for 1.5 min; each well of the plate was added with 100 μL of 2 N H₂SO₄ stop buffer for stopping substrate reaction, OD values at 450 nm were read using a microplate reader, and the binding ability of the antibody to the target antigen CDH6 was analyzed.

recombinant protein CDH6 [3] = target: T2, recombinant protein CDH6; test: ELISA, CDH6 coated; antibody 25 ng/mL
Description: as §1

recombinant protein CDH6 [4] = target: T2, recombinant protein CDH6; test: ELISA, CDH6 coated; antibody 50 ng/mL
Description: as §1

recombinant protein CDH6 [5] = target: T2, recombinant protein CDH6; test: ELISA, CDH6 coated; antibody 100 ng/mL
Description: as §1

recombinant protein CDH6 [6] = target: T2, recombinant protein CDH6; test: ELISA, CDH6 coated; antibody 0.10 ng/mL
Description: as §1

recombinant protein CDH6 [7] = target: T2, recombinant protein CDH6; test: ELISA, CDH6 coated; antibody 0.20 ng/mL
Description: as §1

recombinant protein CDH6 [8] = target: T2, recombinant protein CDH6; test: ELISA, CDH6 coated; antibody 0.39 ng/mL
Description: as §1

recombinant protein CDH6 [9] = target: T2, recombinant protein CDH6; test: ELISA, CDH6 coated; antibody 0.78 ng/mL
Description: as §1

recombinant protein CDH6 [10] = target: T2, recombinant protein CDH6; test: ELISA, CDH6 coated; antibody 1.56 ng/mL
Description: as §1

recombinant protein CDH6 [11] = target: T2, recombinant protein CDH6; test: ELISA, CDH6 coated; antibody 12.5 ng/mL
Description: as §1

recombinant protein CDH6 [12] = target: T2, recombinant protein CDH6; test: ELISA, CDH6 coated; antibody 3.13 ng/mL
Description: as §1

recombinant protein CDH6 [13] = target: T2, recombinant protein CDH6; test: ELISA, CDH6 coated; antibody 6.25 ng/mL
Description: as §1

[14] = target: T1, CDH6 on the cell surface of OVCAR-3 …; test: flow cytometry (FACS) on OVCAR-3 cells, antibody titration, labelled secondary antibody, MFI; remark: listed apart in the source

EC50 (read off the curve) [1] [nM]	sensitivity (recombinant protein CDH6 [2]) [ng/mL]	OD450 (recombinant protein CDH6 [3]) [OD450]	OD450 (recombinant protein CDH6 [4]) [OD450]	OD450 (recombinant protein CDH6 [5]) [OD450]	OD450 (recombinant protein CDH6 [6]) [OD450]	OD450 (recombinant protein CDH6 [7]) [OD450]	OD450 (recombinant protein CDH6 [8]) [OD450]	OD450 (recombinant protein CDH6 [9]) [OD450]	OD450 (recombinant protein CDH6 [10]) [OD450]	OD450 (recombinant protein CDH6 [11]) [OD450]	OD450 (recombinant protein CDH6 [12]) [OD450]	OD450 (recombinant protein CDH6 [13]) [OD450]	EC50 (read off the curve) [14] [nM]	Binder
~1	–	–	–	–	–	–	–	–	–	–	–	–	–	CL069707-H1L2 (antibody, human IgG1, kappa, V domains shown, Humanized IgG1/kappa, produced in 293 cells) VH: EVQLVESGGGLVQPGGSLRLSCAASGFTFTTYAMNWVRQAPGKGLEWVARIRIKNNNYATYYADSVTDRFTISRDDSKNSLYLQMNSLKTEDTAVYYCVRPDYGNYGLAYWGQGTLVTVSS VL: DIQLTQSPSSLSASVGDRVTITCSASSSISSHYLHWYQQKPGKSPKLLIYRSFYLASGVPLRFSGSGSGTDFTLTISSLQPEDFATYYCQQDIVPLTFGQGTKLEIKR
–	≤ 1.56	1.18	1.33	1.41	0.069	0.101	0.165	0.305	0.577	1.27	0.831	1.01	–	CL069707 antibody (antibody, V domains shown, Mouse monoclonal antibody from hybridoma, purified from ascites with Protein A/G; also called #23; No. 23) VH: EVHLVESGGGLVQPKGSLKLSCVASGFTFTTYAMNWVRQAPGKGLEWVARIRIKNNNYATYYADSVTDRFTISRDDSQSMLYLQMNNLKTEDTAMYYCVRPDYGNYGLAYWGQGTLVTVSA VL: EIVLTQSPTTMAASPGEKITITCSASSSISSHYLHWYQQKPGFSPKLLIYRSFYLASGVPLRFTGSGSGTSYSLTIGTMEAEDVATYYCQQDIVPLTFGAGTKLELK
~1	–	–	–	–	–	–	–	–	–	–	–	–	–	CL069707-H2L1 (antibody, human IgG1, kappa, V domains shown, Humanized IgG1/kappa, produced in 293 cells) VH: EVQLVESGGGLVQPGGSLRLSCAASGFTFTTYAMNWVRQAPGKGLEWVGRIRIKNNNYATYYADSVTDRFTISRDDSKNSLYLQMNSLKTEDTAVYYCVRPDYGNYGLAYWGQGTLVTVSS VL: DIQLTQSPSSLSASVGDRVTITCSASSSISSHYLHWYQQKPGKSPKLLIYRSFYLASGVPSRFSGSGSGTDFTLTISSLQPEDFATYYCQQDIVPLTFGQGTKLEIKR
~1	–	–	–	–	–	–	–	–	–	–	–	–	–	CL069707-H2L2 (antibody, human IgG1, kappa, V domains shown, Humanized IgG1/kappa, produced in 293 cells) VH: EVQLVESGGGLVQPGGSLRLSCAASGFTFTTYAMNWVRQAPGKGLEWVGRIRIKNNNYATYYADSVTDRFTISRDDSKNSLYLQMNSLKTEDTAVYYCVRPDYGNYGLAYWGQGTLVTVSS VL: DIQLTQSPSSLSASVGDRVTITCSASSSISSHYLHWYQQKPGKSPKLLIYRSFYLASGVPLRFSGSGSGTDFTLTISSLQPEDFATYYCQQDIVPLTFGQGTKLEIKR
–	≤ 1	3.69	3.89	3.9	0.106	0.181	0.255	0.647	1.11	3.62	1.87	2.82	–	CL069439 antibody (antibody, V domains shown, Mouse monoclonal antibody from hybridoma, purified from ascites with Protein A/G; also called #16; No. 16) VH: EVQLQQSGTELVRTGASVKISCKASGYSFTGYYIHWIKQSHGESLEWIGYISCFNGDTSYNQNFKDRATFNVDTSSSTAYMQFISLTSEDSAVYYCVRGRYGNFNYFDYWGQGTTLTVSS VL: DIVLTQSPASLAVSLGQRATISCRASESVEFYGTSLMQWFQQKPGHPPQLLIYATSNVDSGVPARFSASGSGTDFSLNIHPVEEADIAMYFCQQSRRIPWTFGGGTKLEIK
–	≤ 6.3	1.69	2.11	2.38	0.048	0.05	0.063	0.094	0.17	1.08	0.3	0.577	–	CL069066 antibody (antibody, V domains shown, Mouse monoclonal antibody from hybridoma, purified from ascites with Protein A/G; also called #4; No. 4) VH: EVKLLESGGGLVQPGGSLKLSCAASGFDFSRYWMTWVRQAPGKGLEWIGEINPDSSTINYTPSLKDKFIISRDNAKNTLYLQMNKVTSEDTALYYCTRRPHYYGYFDSWGQGTTLTVSS VL: DIVLTQSPASLAVSLGQRATISCRASESVEYYGTTLMQWYQQKPGQPPQLLIYAGSNVESGVPARFSGSGSGTEFSLNIHPVEEDDIGMYFCQQSRKVPWTFGGGTKLEIK
–	–	–	–	–	–	–	–	–	–	–	–	–	~4	CL069463-H1L1 (antibody, human IgG1, kappa, V domains shown, Humanized IgG1/kappa) VH: EVQLVESGGGLVQPSGSLKLSCAASGFTFNTYALTWVRQASGKGLEWVGRIKSKNKDYETYYADSVKDRFTISRDDSISTLYLQMNSLKTEDTALYYCVRQNWNYFDYWGQGTMLTVSS VL: DIQMTQSPSSLSASVGQRVTITCRASENIYYSLAWYQQKPGKPPRLLIYNANSLKDGVPSRFSGSGSGTQYTMTITSMQPEDFATYYCQQAYDVPPTFGGGTKLEIKR
–	≤ 3.12	1.8	2.32	2.62	0.073	0.086	0.139	0.211	0.374	1.7	0.596	0.975	–	CL069463 antibody (antibody, V domains shown, Mouse monoclonal antibody from hybridoma, purified from ascites with Protein A/G; also called #13; No. 13) VH: EVQLVESGGGLVQPKGSLKLSCAASGFTFNTYALTWVRQAPGKGLEWVGRIKSKNKDYETYYADSVKDRFTISRNDSQSLLYLQMNNLKTEDTAIYYCVRQNWNYFDYWGQGTTLTVSS VL: DIQMTQSPASLAASVGETVTITCRASENIYYSLAWYQQRQGKSPQLLIYNANSLKDGVPSRFSGSGSGTQYSMKINSMQPEDTATYFCQQAYDVPPTFGGGTKLEIK
